This note sets out measurements from publication PMC6743362.

For this assay, the target named is microtubules (MT fraction from mouse brain) (mouse (endogenous in mouse brain)) (UniProt P68369). The assay is described as follows: co-sedimentation.

“recombinant human tau, 0N4R variant (WT tau) (from UniProt P10636-6 1-383) (natural protein)” had an MT-bound fraction of 0.989.

The substance “recombinant human tau lacking both PRR2 and MTBD (ΔPRR2-MTBD) (from UniProt P10636-6 1-383) (natural protein)” returned an MT-bound fraction of 0.059 and an MT-unbound fraction of 0.941.

As for “recombinant human tau lacking the proline-rich region 2 (ΔPRR2) (from UniProt P10636-6 1-383) (natural protein)”, the MT-bound fraction was 0.839 and the MT-unbound fraction stood at 0.161.
